Source: US20200103410A1 (ECS PROGASTRIN, published 2020)

B1: mAb3 (hybridoma 6B5B11C10) (antibody, V domains shown)
VH: EVQLQQSGTVLARPGASVKMSCKASGYIFTSYWVHWVKQRPGQGLEWIGGFYPGNSDSRYNQKFKGKATLTAVTSASTAYMDLSSLTNEDSAVYFCTRRDSPQYWGQGTTLTVSS
VL: DVLMTQTPLSLPVSLGDQASISCRSSQSIVHSNGNTYLEWYLQKPGQSPKLLIYKVSNRFSGVPDRFSGSGSGTDFTLKISRLEAEDLGVYYCFQGSHVPFTFGGGTKLEIK
notes: Murine monoclonal antibody
B2: mAb4 (hybridoma 20D2C3G2) (antibody, V domains shown)
VH: QVQLQQSGAELMKPGASVKISCKATGYTFSSSWIEWLKQRPGHGLEWIGEFLPGSGSTDYNEKFKGKATFTADTSSDTAYMLLSSLTSEDSAVYYCATDGNYDWFAYWGQGTLVTVSA
VL: DLVMTQTPLSLPVSLGDQASISCRSSQSLVHSSGVTYLHWYLQKPGQSPKLLIYKVSNRFSGVPDRFSGSGSGTDFTLKISRVEAEDLGVYFCSQSTHVPPTFGSGTKLEIK
notes: Murine monoclonal antibody
B3: mAb16 (hybridoma 1E9D9B6) (antibody, V domains shown)
VH: QVQLQQSGAELVKPGASVKLSCKASGYTFTSYYMYWVKQRPGQGLEWIGEINPSNGGTNFNEKFKSKATLTVDKSSSTAYMQLSSLTSEDSAVYYCTRGGYYPFDYWGQGTTLTVSS
VL: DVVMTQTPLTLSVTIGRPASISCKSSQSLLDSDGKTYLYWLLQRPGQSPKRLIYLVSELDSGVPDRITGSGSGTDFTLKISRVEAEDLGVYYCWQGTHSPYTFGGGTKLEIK
notes: Murine monoclonal antibody
B4: mAb19 (hybridoma 1B3B4F11) (antibody, V domains shown)
VH: DVQLQESGPGLVKPSQSLSLTCTVTGYSITSDYAWNWIRQFPGNKLEWMGYISFSGYTSYNPSLKSRISVTRDTSRNQFFLQLTSVTTEDTATYYCAREVNYGDSYHFDYWGQGTIVTVSS
VL: QLALTQSSSASFSLGASAKLTCTLSSQHRTYTIEWYQQQSLKPPKYVMEVKKDGSHSTGHGIPDRFSGSSSGADRYLSISNIQPEDEAIYICGVGDAIKGQSVFVFGGGTKVTVL
notes: Murine monoclonal antibody
B5: mAb13 (hybridoma 2C6C3C7) (antibody, V domains shown)
VH: EVQLVESGGGLVQPGGSLKLSCAASGFIFSSYGMSWVRQSPDRRLELVASINTFGDRTYYPDSVKGRFTISRDNAKNTLYLQMTSLKSEDTAIYYCARGTGTYWGQGTTLTVSS
VL: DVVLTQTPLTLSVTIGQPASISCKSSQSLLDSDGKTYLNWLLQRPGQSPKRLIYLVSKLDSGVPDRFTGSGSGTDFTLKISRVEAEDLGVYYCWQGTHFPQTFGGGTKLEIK
notes: Murine monoclonal antibody

Target: T1, human progastrin (full length) (human)
T1 construct: also called hPG; PG
T1 chain: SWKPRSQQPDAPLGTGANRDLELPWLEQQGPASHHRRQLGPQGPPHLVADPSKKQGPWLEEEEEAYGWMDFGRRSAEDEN
Experiment: epitope mapping (no details given)

Row | Binder | binding result
1 | B1 | binds
2 | B2 | binds
3 | B3 | binds
4 | B4 | binds
5 | B5 | binds
